Data published in publication PMC7717961, “O-GlcNAcylation Suppresses the Ion Current IClswell by Preventing the Binding of the Protein ICln to α-Integrin” (Frontiers in Cell and Developmental Biology, 2020).
Residue numbers refer to the chain shown, from its start.

B1: ICln: 100 μM PUGNAc plus 5 mM glucosamine (protein)
parent chain: MSFLKSFPPPGPAEGLLRQQPDTEAVLNGKGLGTGTLYIAESRLSWLDGSGLGFSLEYPTISLHALSRDRSDCLGEHLYVMVNAKFEEESKEPVADEEEEDSDDDVEPITEFRFVPSDKSALEAMFTAMCECQALHPDPEDEDSDDYDGEEYDVEAHEQGQGDIPTFYTYEEGLSHLTAEGQATLERLEGMLSQSVSSQYNMAGVRTEDSIRDYEDGMEVDTTPTVAGQFEDADVDH
B2: ECFP-ICln Ser67Ala (natural protein, UniProt P54105 1-237, looked up)
chain: B1 parent chain with S67A
notes: ICln with Ser67Ala, made by site-directed mutagenesis of the vector with the wild-type ICln cDNA; also called Ser67Ala ICln; source: NIH/3T3, transfected for 48 h, in fixed cells; not shown: ECFP, N-terminal, kept

Assays:
[1] = patch clamp, IClswell in wild-type ICln-transfected cells; conditions: control: vehicle (0.1% DMSO plus 5 mM D-glucose)
[2] = biological target: T1, integrin αIIbshort-EYFP (amino acids 987-1039 of the human integrin αIIb chain fused to EYFP) (human, UniProt P08514-1 987-1039); assay: FRET or BRET; acceptor photobleaching FRET in fixed NIH/3T3 cells transfected for 48 h; donor ECFP-ICln, acceptor αIIbshort-EYFP; FRET efficiency in three-four plasma membrane ROIs of each cell; O-GlcNAcylation left unmodified, increased with 100 μM PUGNAc plus 5 mM glucosamine for 1 h, or reduced by co-transfection of OGA-L; conditions: partners not purified
T1 construct: human integrin αIIb chain, amino acids 987-1039 of NP_000410.2 (integrin αIIbshort); also called αIIbs-EYFP; αIIb integrin; source: NIH/3T3, transfected for 48 h, in fixed cells; not shown: EYFP, C-terminal, kept
T1 sequence (P08514 987-1039): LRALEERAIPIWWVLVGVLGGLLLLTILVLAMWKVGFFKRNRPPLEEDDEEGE

Binder	other: channel current, other: % variation of current at +100 mV [1]	FRET efficiency relative to wild-type ICln [2] [fold]
B1	decreases	–
B2	–	~3
